Assay [1] deals with T1, recombinant human 4-1BB (Sino Biological Inc., catalog number 10041-H08H) (human, UniProt Q07011 24-186). As to the kind of experiment: ELISA; FIG. 2.
Assay [2] deals with T1, recombinant human 4-1BB (Sino …). Kind of assay: ELISA; FIG. 6. (An ELISA detects its analyte on a solid surface through an enzyme-linked reagent.)
The target is the same in assay [3]. As to the kind of experiment: ELISA; FIG. 6. The source holds these as a separate data set.
The target is the same in assay [4]. As to the kind of experiment: competition ELISA; blocking of 4-1BB/4-1BBL.

B1: Urelumab (a patent sequence from WO2004010947) (antibody, V domains shown)
VH: QVQLQQWGAGLLKPSETLSLTCAVYGGSFSGYYWSWIRQSPEKGLEWIGEINHGGYVTYNPSLESRVTISVDTSKNQFSLKLSSVTAADTAVYYCARDYGPGNYDWYFDLWGRGTLVTVSS
VL: EIVLTQSPATLSLSPGERATLSCRASQSVSSYLAWYQQKPGQAPRLLIYDASNRATGIPARFSGSGSGTDFTLTISSLEPEDFAVYYCQQRSNWPPALTFGGGTKVEIK
As a reminder, the EC50 is the concentration at which the effect is half-maximal. Consider B1, for which the EC50 in assay [1] and in assay [2] was 0.087 nM throughout.

B2: humanized anti-human 4-1BB monoclonal antibody BH3145b (antibody, V domains shown)
VH: QVQLVQSGAEVKKPGSSVKVSCKASGYTFTSYWINWVRQAPGQGLEWMGNIYPSDSYTNYNQKFKDRVTITADKSTSTAYMELSSLRSEDTAVYYCARLYYGSSPFDYWGQGTTVTVSS
VL: DIQMTQSPSSLSASVGDRVTITCRASQDISNYLNWYQQKPGKVPKLLIYHTSRLHSGVPSRFSGSGSGTDFTLTISSLQPEDVATYYCQQGHTLPRTFGGGTKVEIKR
For the molecule B2, the EC50 in assay [3] was determined as 0.086 nM; in assay [4] it was 14 nM.
